The text below walks through data of patent US20140105889A1 (published 2014).

Test [1] addresses T1, human FcγRIIb (human, UniProt P31994 43-217, limits assumed).
T1 construct: also called FcγIIB; hFcgRIIb
T1 sequence: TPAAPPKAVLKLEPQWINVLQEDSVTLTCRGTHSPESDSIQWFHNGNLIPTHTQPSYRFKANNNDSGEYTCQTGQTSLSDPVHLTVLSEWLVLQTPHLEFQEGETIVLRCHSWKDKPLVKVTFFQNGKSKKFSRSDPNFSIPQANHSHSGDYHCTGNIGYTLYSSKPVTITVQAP
Description: ratio of this variant's SPR KD for FcγRIIaR to its KD for FcγRIIb.

For a further test, the target named is T2, human FcγRIIa type R (human, UniProt P12318 36-217).
T2 construct: also called FcγRIIaR; FcγRIIa(R)
T2 chain: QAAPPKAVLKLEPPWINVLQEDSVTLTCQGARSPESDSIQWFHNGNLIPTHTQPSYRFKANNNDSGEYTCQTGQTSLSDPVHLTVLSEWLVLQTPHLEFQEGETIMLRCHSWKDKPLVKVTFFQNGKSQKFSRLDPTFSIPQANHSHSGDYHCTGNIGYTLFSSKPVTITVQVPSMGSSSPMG
Description: SPR (Biacore), captured antibody, FcγR as analyte, 25 C.

For test [2], the target named is T1, human FcγRIIb. The experiment in a line: ratio of this variant's SPR KD for FcγRIIaH to its KD for FcγRIIb.
Test [3] concerns the target T1, human FcγRIIb. Description: SPR KD for FcγRIIb of parent IL6R-B3/IL6R-L divided by that of this variant.
The next test addresses T3, mouse FcγRIV (mouse).
T3 construct: Bought soluble receptor; also called mFcgRIV; mFcgR IV
Description: SPR (Biacore), antibody captured on Protein L, mouse FcγR as analyte, pH 7.4, 25 C. In general terms: SPR reads the build-up and loss of mass on a sensor chip optically.

Test [4] has as its target T4, human FcRn (soluble human FcRn complexed with beta2-microglobulin) (human, UniProt P61769 21-119).
T4 construct: Soluble human FcRn complexed with beta2-microglobulin; also called hFcRn
Description: Biacore SPR, antibody captured on Protein L, human FcRn analyte, pH 7.0.

The target in test [5] is T5, FcγRIIIa type V (human, UniProt P08637 17-208, limits assumed).
T5 construct: also called FcγRIIIaV; FcγRIIIa(V)
Description: SPR (Biacore), captured antibody, FcγR as analyte, method of Example 14.

Test [6] addresses T6, FcγRIIb (human, UniProt P31994 43-217, limits assumed).
T6 construct: also called FcγIIB; FcgRIIb
T6 sequence: T1 sequence
The experiment in a line: ratio of SPR KD values of this variant (FcγRIIaH over FcγRIIb).

In test [7] the target is T6, FcγRIIb. The experiment in a line: ratio of SPR KD values of this variant (FcγRIIaR over FcγRIIb).
The target in a further test is T7, human FcRn (human).
T7 construct: also called hFcRn; soluble human FcRn complexed with β2-microglobulin
The experiment in a line: SPR (Biacore), pH 7.0, 25 C, antibody captured by Protein L, human FcRn as analyte.

Test [8] has as its target T8, human FcRn (soluble human FcRn complexed with beta2-microglobulin) (human, UniProt P61769 21-119).
T8 construct: also called hFcRn
The test is described as above.

The target of test [9] is T9, FcγRIIb (human, UniProt P31994 43-217, limits assumed).
T9 construct: Soluble analyte in Biacore; also called FcgRIIb; FcγIIB
T9 sequence: T1 sequence
The experiment in a line: SPR (Biacore), antibody captured on chip, FcγR as analyte, method of Example 14.

Test [10] concerns the target T10, FcγRIIIa type V (human, UniProt P08637 17-208, limits assumed).
T10 construct: Soluble analyte in Biacore; also called FcγRIIIaV; FcγRIIIa(V)
The test is described as above.

In another test the target is T11, FcγRIIa type H (human, UniProt P12318 36-217).
T11 construct: also called FcγRIIaH; FcγRIIa(H)
T11 sequence: T2 chain with R133H
Description: SPR (Biacore), captured antibody, FcγR as analyte, method of Example 14.

Changes are numbered by the printed parent chain. Names and notes keep the numbering of the source.

T7 sequence (chain, as listed by the source limits assumed, chain 1 of 2): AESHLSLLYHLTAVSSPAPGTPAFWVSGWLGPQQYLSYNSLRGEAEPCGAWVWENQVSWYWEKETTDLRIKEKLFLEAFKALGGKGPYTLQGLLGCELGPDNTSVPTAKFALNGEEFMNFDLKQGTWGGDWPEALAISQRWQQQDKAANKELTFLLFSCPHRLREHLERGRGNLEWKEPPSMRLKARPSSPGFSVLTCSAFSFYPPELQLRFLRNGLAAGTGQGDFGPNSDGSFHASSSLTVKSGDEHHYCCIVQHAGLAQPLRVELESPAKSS
T7 sequence (P61769 21-119 limits assumed, chain 2 of 2): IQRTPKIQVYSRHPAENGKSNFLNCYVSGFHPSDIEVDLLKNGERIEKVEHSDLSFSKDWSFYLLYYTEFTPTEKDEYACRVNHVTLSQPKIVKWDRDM
T3 sequence (A0A0B4J1G0 21-203): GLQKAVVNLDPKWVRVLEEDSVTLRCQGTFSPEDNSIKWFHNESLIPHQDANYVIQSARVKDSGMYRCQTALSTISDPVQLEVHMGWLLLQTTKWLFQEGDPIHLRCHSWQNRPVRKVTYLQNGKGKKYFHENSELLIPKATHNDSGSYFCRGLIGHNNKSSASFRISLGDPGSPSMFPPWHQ

B1: IL6R-BF648/IL6R-L (antibody, human IgG1)
heavy: not shown
light: DIQMTQSPSSLSASVGDRVTITCRASQDISSYLNWYQQKPGKAPKLLIYYTSRLHSGVPSRFSGSGSGTDFTFTISSLQPEDIATYYCQQGNTLPYTFGQGTKVEIK
notes: IL6R-B3 with P238D; copies: 2 + 2
The term Kd denotes the concentration at which binding is half-saturated. A higher Kd goes with a looser complex. B1: the “KD (IIaR)/KD (IIb)” value with human FcγRIIb [1] was determined as 13. In the test with human FcγRIIa type R, the Kd came to 1500 nM. The “KD (IIaH)/KD (IIb)” value in the test with human FcγRIIb [2] was 33.9.

B2: IL6R-BP082/IL6R-L (antibody, human IgG1)
heavy: QVQLQESGPGLVKPSETLSLTCAVSGHSISHDHAWSWVRQPPGEGLEWIGFISYSGITNYNPSLQGRVTISRDNSKNTLYLQMNSLRAEDTAVYYCARSLARTTAMDYWGEGTLVTVSSASTKGPSVFPLAPSSKSTSGGTAALGCLVKDYFPEPVTVSWNSGALTSGVHTFPAVLQSSGLYSLSSVVTVPSSSLGTQTYICNVNHKPSNTKVDKKVEPKSCDKTHTCPPCPAPDLLGGDSVFLFPPKPKDTLMISRTPEVTCVVVDVSHEDPEVKFNWYVDGVEVHNAKTKPREEQYNSTYRVVSVLTVLHQDWLNGKEYKCKVSNKALPKPIEKTISKAKGQPREPQVYTLPPSRDELTKNQVSLTCLVKGFYPSDIAVEWESNGQPENNYKTTPPVLDSDGSFFLYSKLTVDKSRWQQGNVFSCSVMHEALHNHYTQESLSLSP
light: B1 light
notes: copies: 2 + 2
On to B2, for which the “KD(IIb) of the parent polypeptide/KD(IIb) of the altered polypeptide” value with human FcγRIIb [3] was determined as 5.6. In addition, the “KD (IIaR)/KD (IIb)” value with human FcγRIIb [1] worked out at 22.5. The Kd in the test with human FcγRIIa type R was 1200 nM. The “KD (IIaH)/KD (IIb)” value with human FcγRIIb [2] was determined as 69.

B3: VH3/L(WT)-IgG1-F140 (antibody)
heavy: B2 heavy with D235E, D240P, S241K, M254Y, V310P, K332A, N436Y, E441K
light: not shown
notes: copies: 2 + 2
B3: in the test with mouse FcγRIV, the “BINDING AMOUNT (RU)” value turned out to be 108 RU.

B4: IgG1-F281 (antibody, name in EU numbering)
heavy: B2 heavy with D235E, D240P, M254Y, V310P, K332A, E384A, M430F, N436Y, E441K
light: not shown
notes: Fc variant of VH3-IgG1; copies: 2 + 2
For B4, the affinity in [4], expressed as Kd, was 92 nM.

B5: IgG1-F276 (antibody, name in EU numbering)
heavy: B2 heavy with D235E, D240P, M254Y, D272F, V310P, K332A, E384A, N436Y, E441K
light: not shown
notes: as for B4
Molecule B5 came in with a Kd in test [4] of 41 nM.

B6: IL6R-BP152/IL6R-L (antibody, human IgG1)
heavy: B2 heavy with L236Y, G239D, Y298D, K328A, K332R
light: B1 light
notes: EU numbering
B6 returned a Kd in the test with FcγRIIIa type V [5] of 40000 nM. In addition, the “KD (IIaH)/KD (IIb)” value with FcγRIIb [6] is 136. For the same molecule, in the test with FcγRIIb [7], the “KD (IIaR)/KD (IIb)” value is 19.5.

B7: F1270 (antibody, name in EU numbering)
heavy: QVQLQESGPGLVKPSETLSLTCAVSGHSISHDHAWSWVRQPPGEGLEWIGFISYSGITNYNPSLQGRVTISRDNSKNTLYLQMNSLRAEDTAVYYCARSLARTTAMDYWGEGTLVTVSSASTKGPSVFPLAPSSKSTSGGTAALGCLVKDYFPEPVTVSWNSGALTSGVHTFPAVLQSSGLYSLSSVVTVPSSSLGTQTYICNVNHKPSNTKVDKKVEPKSCDKTHTCPPCPAPELRGGPKVFLFPPKPKDTLYIARTPEVTCVVVDVSHEDPEVKFNWYVDGVEVHNAKTKPREEQYNSTYRVVSVLTVLHQDWLNGKEYKCKVSNKALPAPIEKTISKAKGQPREPQVYTLPPSRDELTKNQVSLTCLVKGFYPSDIAVEWESNGQPENNYKTTPPVLDSDGSFFLYSKLTVDKSRWQQGNVFSCSVMHEALHYHVTKKDLSLSP
light: not shown
notes: copies: 2 + 2
For B7, binding with human FcRn was characterised by a dissociation constant (Kd) of 118 nM.

B8: IgG1-F936 (antibody, name in EU numbering)
heavy: B2 heavy with D235E, G239R, T252V, M254Y, K332A, N436Y, E441K
light: not shown
With B8, binding in test [8] was put at a Kd of 320 nM.

B9: IgG1-F273 (antibody, name in EU numbering)
heavy: B2 heavy with D235E, D240P, M254Y, K332A, E384A, M430F, N436Y, E441K
light: not shown
notes: as for B4
In the case of B9, binding in test [4] was put at a Kd of 650 nM.

B10: F1272 (antibody, name in EU numbering)
heavy: B7 heavy with H435D
light: not shown
notes: copies: 2 + 2
As for B10, in the test with human FcRn, binding was put at a Kd of 171 nM. That is a sub-micromolar value.

B11: IL6R-BP207/IL6R-L (antibody, human IgG1)
heavy: B2 heavy with K332R
light: B1 light
notes: Anti-human IL-6 receptor IgG1 Fc variant
Regarding B11, the dissociation constant (Kd) was 640 nM with FcγRIIb [9] and 65000 nM with FcγRIIIa type V [10].

B12: IgG1-F941 (antibody, name in EU numbering)
heavy: B7 heavy with R237L, K241S, A256S, N288E, T309Q, Q313A, K440Q, D442S
light: not shown
In the case of B12, the Kd in test [8] came to 12 nM. This lies in the double-digit nanomolar range.

B13: antibody with VH3-IgG1-F424 heavy chain and L(WT)-CK light chain (antibody)
heavy: B2 heavy with D235E, D240P, S241K, P259A, V310P, K332A, M430L, N436Y, E441K
light: not shown
notes: copies: 2 + 2
For the molecule B13, in the test with mouse FcγRIV, the “BINDING AMOUNT (RU)” value worked out at 138 RU.

B14: F1254 (antibody, name in EU numbering)
heavy: B7 heavy with A256S, T309Q, K440R, D442E
light: not shown
notes: copies: 2 + 2
B14 had a Kd with human FcRn of 64.2 nM.

B15: IL6R-BP146/IL6R-L (antibody, human IgG1)
heavy: B2 heavy with D235E, L236Y, G239D, K328A, K332A
light: B1 light
notes: positions are EU numbering, not positions on the entry
For B15, the values for the Kd in the test with FcγRIIa type H and with FcγRIIIa type V [5] were 1600 nM and 30000 nM, respectively. Moreover, the “KD (IIaH)/KD (IIb)” value with FcγRIIb [6] came out at 50. Also, the “KD (IIaR)/KD (IIb)” value in the test with FcγRIIb [7] came out at 9.3.

B16: IgG1-F928 (antibody, name in EU numbering)
heavy: B7 heavy with R237L, K241S, A256S, T309Q, Q313A, V438I, K440Q, D442S
light: not shown
In test [8], B16 showed a Kd of 29 nM.

B17: IL6R-BP147/IL6R-L (antibody, human IgG1)
heavy: B2 heavy with D235E, L236Y, G239D, K328A
light: B1 light
notes: EU numbering
In the test with FcγRIIIa type V [5], B17 had a Kd of 35000 nM.

B18: antibody with VH3-IgG1-F157 heavy chain and L(WT)-CK light chain (antibody)
heavy: B2 heavy with D235E, D240P, P259A, V310P, K332A, M430L, N436Y, E441K
light: not shown
notes: copies: 2 + 2
As for B18, in the test with mouse FcγRIV, the “BINDING AMOUNT (RU)” value amounted to 243 RU.

B19: F1269 (antibody, name in EU numbering)
heavy: B7 heavy with A256S, H435D
light: not shown
notes: copies: 2 + 2
Molecule B19 gave a Kd in the test with human FcRn of 169 nM.

B20: IgG1-F919 (antibody, name in EU numbering)
heavy: B2 heavy with D235E, D240P, M254Y, D282G, K332A, N386A, N391A, N436Y, E441K
light: not shown
Consider B20, for which, in test [8], the Kd was 330 nM. This counts as sub-micromolar.

B21: IL6R-BP210/IL6R-L (antibody, human IgG1)
heavy: B2 heavy with D235E, G239D, H270D, P273G, K332R
light: B1 light
notes: as for B11
B21 gave a Kd with FcγRIIb [9] of 39000 nM. That is a double-digit micromolar value.

B22: IgG1-F271 (antibody, name in EU numbering)
heavy: B2 heavy with D235E, D240P, M254Y, K332A, D378A, M430F, N436Y, E441K
light: not shown
notes: as for B4
Regarding B22, the Kd in [4] was 690 nM. That is a sub-micromolar value.

B23: IL6R-BP182/IL6R-L (antibody, human IgG1)
heavy: B2 heavy with P273G, Y298D
light: B1 light
notes: EU numbering
For B23, the Kd came to 2600 nM with FcγRIIa type H and 68000 nM in the test with FcγRIIIa type V [5].
